According to US20180312579A1 (Genentech, published 2018):

Experiments:
mouse RSPO3 = molecular target: T1, mouse RSPO3 (mouse, UniProt Q2TJ95 22-277, limits assumed); assay: SPR (Biacore) with the Fab; table row RSPO3, Affinity (nM) Fab
T1 construct: also called mRSPO3; murine RSPO3
T1 sequence (looked up): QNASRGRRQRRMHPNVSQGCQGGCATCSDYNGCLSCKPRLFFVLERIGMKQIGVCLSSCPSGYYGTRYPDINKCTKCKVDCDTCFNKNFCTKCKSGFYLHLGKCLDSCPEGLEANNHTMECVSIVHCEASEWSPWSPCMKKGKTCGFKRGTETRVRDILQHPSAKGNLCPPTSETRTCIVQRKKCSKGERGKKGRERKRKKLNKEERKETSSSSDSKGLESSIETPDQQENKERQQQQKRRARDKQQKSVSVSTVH
Method: (§1) For kinetic measurements, two-fold serial dilutions of anti-RSPO Fabs were injected in HBS-P buffer (0.01M HEPES pH 7.4, 0.15M NaCl, 0.005% surfactant P20) at 25° C. with a flow rate of 30 μl/min. Association rates (kₒₙ) and dissociation rates (koff) were calculated using a simple one-to-one Langmuir binding model (BIAcore Evaluation Software version 3.2). The equilibrium dissociation constant (KD) was calculated as the ratio koff/kₒₙ.
(§2) Surface plasmon resonance was used to confirm binding specificities and affinities to human, mouse, and cynomolgus RSPOs. Fab fragments from antibody clones were digested, purified, and then assayed using a BIAcore™-2000 instrument for binding to recombinant proteins. Antibodies fell into three groups: those specific to RSPO2, those specific to RSPO3, and those with some degree of cross-reactivity (FIG. 5).

cynomolgus RSPO3 = molecular target: T2, cynomolgus RSPO3 (cynomolgus, UniProt A0A2K5UTQ7 22-273); assay: as above
T2 construct: also called cynoRSPO3; rcynoRSPO3
T2 sequence: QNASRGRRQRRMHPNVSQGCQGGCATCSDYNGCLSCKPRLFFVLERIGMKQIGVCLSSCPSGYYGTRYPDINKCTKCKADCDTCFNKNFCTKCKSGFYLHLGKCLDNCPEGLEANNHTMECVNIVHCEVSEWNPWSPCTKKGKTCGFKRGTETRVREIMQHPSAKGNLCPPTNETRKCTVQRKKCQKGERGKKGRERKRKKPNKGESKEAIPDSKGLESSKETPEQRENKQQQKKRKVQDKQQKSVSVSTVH
Method: as §1, §2

recombinant human RSPO3 [1] = molecular target: T3, recombinant human RSPO3 (human, UniProt Q9BXY4 22-272); assay: as above
T3 construct: also called rhRSPO3; hRSPO3
T3 sequence: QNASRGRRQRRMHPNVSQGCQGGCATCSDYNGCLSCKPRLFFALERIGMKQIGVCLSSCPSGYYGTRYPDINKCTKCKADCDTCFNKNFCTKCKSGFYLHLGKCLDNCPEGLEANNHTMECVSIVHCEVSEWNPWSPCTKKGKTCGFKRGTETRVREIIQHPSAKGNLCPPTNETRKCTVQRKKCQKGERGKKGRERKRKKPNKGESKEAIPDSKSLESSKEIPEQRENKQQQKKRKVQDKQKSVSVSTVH
Method: as §1, §2

mouse RSPO2 = molecular target: T4, mouse RSPO2 (mouse, UniProt Q8BFU0 22-205, limits assumed); assay: SPR (Biacore) with the Fab; table row RSPO2, Affinity (nM) Fab
T4 construct: also called mRSPO2
Method: as §1, §2

recombinant human RSPO3 [2] = molecular target: T3, recombinant human RSPO3; assay: SPR, BIAcore T200, huRSPO3 immobilized, antibody injected
Method: The binding affinity of the antibodies in this section was determined by BIAcore™ T200 Format. Briefly, BIAcore™ research grade CMS chips were activated with 1-ethyl-3-(3-dimethylaminopropyl) carbodiimide (EDC) and N-hydroxysuccinimide (NETS) reagents according to the supplier's instructions. huRSPO3 was immobilized to achieve approximately 50 response units (RU) in each flow cell. Unreacted coupling groups were blocked with 1M ethanolamine. For kinetics measurements, Four-fold serial dilutions of variant antibody was injected in HBS-P buffer (0.01M HEPES pH7.4, 0.15M NaCl, 0.005% surfactant P20) at 25° C. with a flow rate of 30 μl/min. Association rates (kon) and dissociation rates (koff) were calculated using a 1:1 Langmuir binding model (BIAcore™ T200 Evaluation Software version 2.0). The equilibrium dissociation constant (Kd) was calculated as the ratio koff/kon.

T4 sequence (Q8BFU0 22-205 limits assumed): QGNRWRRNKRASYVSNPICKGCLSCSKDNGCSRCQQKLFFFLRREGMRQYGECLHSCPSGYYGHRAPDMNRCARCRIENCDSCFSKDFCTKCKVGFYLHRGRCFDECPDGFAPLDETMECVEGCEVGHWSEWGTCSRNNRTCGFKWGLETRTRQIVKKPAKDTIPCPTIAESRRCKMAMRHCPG

B1: Fab 5D6 (Fab, V domains shown)
VH: EVQLQESGPSLVKPSQTLSLTCSVTGDSITSGYWNWIRKFPGNKFEYMGYISYSGKTYQNPSLKSRISITRDTSKNQYHLQLNSVTTEDTATYYCATYYGYGGPWFAYWGQGTLVTVSA
VL: DIVLTQSPSSMYASLGERVTITCKASQDIDSYLSWFQQKPGKSPKTLIYLTNRLVDGVPSRFSGSGSGQDYSLTISSLEYEDMGIYYCLHYDEFPLTFGAGTKLEIK
notes: Fab expressed in E. coli for crystallography; also called 5D6 Fab
With B1 as the binder, how does the Kd (mouse RSPO3) read?
Its Kd is 3.36 nM.

What about the Kd (cynomolgus RSPO3) of the same binder?
The Kd was 1.9 nM.

And the Kd (recombinant human RSPO3 [1])?
Its Kd is 0.073 nM.

Does B1 bind (mouse RSPO2)?
Result: no binding

B2: 4H1 (Fab, V domains shown)
VH: EVKLVESGGGFVKPGGSLKLSCAASGFTFSNFAMSWVRQSPEKRLEWVAEINNGGNYAYYQDTVTGRFTISRDNAKNTLYLEMSSLRSEDTAMYFCAREDYVNYEAYFAYWGQGTTLTVSS
VL: SIVMTQTPLSLPVSLGDQASISCRSSQSIVHSNGNTYLEWYLQKPGQSPKLLIYRISNRFSGVPDRFSGSGSGTDFTLKISRVEAEDLGVYYCFQGSHVPYTFGGGTKLEIK
notes: also called Fab of 4H1; 4H1 Fab
With B2 as the binder, how does the Kd (mouse RSPO3) read?
Its Kd is 6.8 nM.

What about the Kd (cynomolgus RSPO3) of the same binder?
The Kd was 6.4 nM.

What about the Kd (recombinant human RSPO3 [1]) of the same binder?
The Kd was 9.5 nM.

Does B2 bind (mouse RSPO2)?
Result: no binding

B3: 6E9 (Fab, V domains shown)
VH: QVQLKESGPGLVQPSQSLSITCTVSGFSLTSYGVHWVRQSPGKGLEWLGVIWSGGSTDYNAAFISRLSISKDNSKSQVFFKMNSLQANDTAIYYCARNDGYYYFDYWGQGTTLTVSS
VL: DIKMTQSTSSLSASLGDRVTISCRASQDISNYLNWYQQKPDGTVKLLIYYTSRLHSGVPSRFSGSGSGTDYSLTISNLEQEDIATYFCQQGDTLPPAFGGGTKLEIK
notes: also called Fab of 6E9; 6E9 Fab
With B3 as the binder, how does the Kd (recombinant human RSPO3 [1]) read?
The Kd was 67 nM.

Does B3 bind (mouse RSPO2)?
Result: no binding

B4: hu5D6v4.3 (Fab, V domains shown)
VH: EVQLVESGPGLVKPSETLSLTCTVSGDSITSGYWNWIRQPPGKGLEWIGYISYSGKTYQNPSLKSRITISRDTSKNQFSLKLSSVTAADTAVYYCATYYGYGGPWFAYWGQGTLVTVSS
VL: DIQMTQSPSSLSASVGDRVTITCKASQDIDSYLSWFQQKPGKAPKTLIYLTNRLVDGVPSRFSGSGSGTDYTLTISSLQPEDFATYYCLHYDEFPLTFGQGTKVEIK
notes: Humanized 5D6 variant; also called v1+T69 (LC)+(W47+I48+F78 (HC))
Which Kd (recombinant human RSPO3 [2]) does the source give for B4 here?
The Kd was 0.07 nM.
